Values joined by “and” are separate entries in the source; they are usually repeats but may differ in a detail not shown here. Equal values may be shown once. Where a SMILES comes first, the peptide text is derived from it. Where no end group is shown, it is not given here. [ ]: non-standard residue; d: D form. Nle = CCCC[C@H](N)C(=O)O; Ahx = NCCCCCC(=O)O
T1: Set8 (Homo sapiens, UniProt Q9NQR1)
T1 construct: made in house; host or cells: Escherichia coli BL21 (DE3) RP
T1 sequence (Q9NQR1 191-352 isoform Q9NQR1-2): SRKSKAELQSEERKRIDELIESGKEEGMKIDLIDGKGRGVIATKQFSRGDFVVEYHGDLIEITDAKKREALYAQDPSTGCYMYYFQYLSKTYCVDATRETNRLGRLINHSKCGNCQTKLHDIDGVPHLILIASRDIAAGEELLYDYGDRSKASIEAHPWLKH

T2: Recombinant Set8-His6x, pHIS2 Set8(191-352) (Homo sapiens (Human), UniProt Q9NQR1 191-352)
T2 construct: Purified from E. coli BL21 (DE3) RP; also called SET domain of Set8; SetD8; not shown: His6x tag from the pHIS2 vector
T2 sequence: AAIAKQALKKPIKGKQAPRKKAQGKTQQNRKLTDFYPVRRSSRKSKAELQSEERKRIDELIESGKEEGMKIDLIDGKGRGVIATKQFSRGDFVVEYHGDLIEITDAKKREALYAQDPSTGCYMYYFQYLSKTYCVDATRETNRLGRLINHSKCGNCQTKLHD


Assays:
HCT 116 cells [1] = assay: Flow cytometry of BrdU incorporation (DNA replication); assay type: cell-based; settings: HCT 116, 24 hr, 2 and 5 μM
HCT 116 cells [2] = assay: Cell viability assay (Resazurin reduction); assay type: cell-based
Procedure: Cell viability was measured using the Resazurin reduction assay which indirectly quantifies living cells through the metabolically active reduction of resazurin to fluorescent resorufin. This assay allows to maintain cells viability and, therefore, to monitor cell growth with time. Exponentially growing HCT 116 cells were seeded into 96-well plates at the density of 2.0×10^4 cells/mL and incubated overnight. The media was replaced with fresh media prior to inhibitor treatment. Cells were treated with 10 μM of inhibitor peptide for 24 hr. All the inhibitors were diluted in the cell culture media (DMEM−/−) from 5 mM stock. All the treated cells were compared to the control (no treatment with equivalent quantity of DMSO) which were considered as 100% viable. One set of wells also prepared with medium only for background subtracting and instrument gain adjustment. The experiments were carried out in triplicate and expressed as mean+−SD. A 10% resazurin solution (0.15 mg/ml stock dissolved in PBS, filter sterilized and stored protected from light at 4° C.) was then added to each well and incubated for 2 hr. The fluorescence was recorded using a multiwell plate reader (Perkin Elmer) at Ex. 560 nm and Em. 610 nm.
Briefly cells were treated with different concentrations of inhibitor for 24 hr ranging from […]. The working dilutions of all the inhibitors were prepared in DMEM−/− media. […]

[3] = test system: H4K20 mono-methylation in HCT 116 cells; assay: Histone H4K20 mono-methylation western blot in treated cells; assay type: cell-based; settings: HCT 116, 24 hr post dosing, 0-10 nM
Procedure: The topmost inhibitor, KBL9-TAT, from all the above experiments were tested for histone methylation status in HCT 116 cells. 3×10^6 cells were plated in 10 cm dish and incubated overnight. Cells were then treated with the inhibitors at various concentrations (0, 0.5, 1, 2, 5, 10 nM). Cells (5×10^6 cells/mL), 24 hr of post dosing, were collected in 15 mL falcon tube and centrifuged at 300×g for 10 min. The supernatant was discarded and the cells are washed with iced cold PBS. The cell pellet is flash-frozen in liquid nitrogen and stored at −80° C. Histone isolation is done using standard protocol. To summarize, cells were re-suspended in 1 mL hypotonic lysis buffer (10 mM Tris-HCl pH 8, 1 mM KCl, 1.5 mM MgCl2 and 1 mM DTT) containing protease inhibitor. The cells were transferred to 1.5 mL tube and incubated for 30 min on rotor at 4° C. to promote hypotonic swelling and lysis. The intact nuclei are collected by centrifugation at 10,000×g for 10 min in a cooled tabletop centrifuge. […]
For western blot, of total of […] of histones were separated on 15% SDS-PAGE and transferred overnight at 15V on PVDF membrane. […] Histone proteins were detected by Supersignal™ West Pico PLUS Chemiluminescent substrate (ThermoFisher Scientific) using the Chemidoc XRS+imaging system (BioRad).

HCT 116 cells [4] = assay: Chemosensitivity to doxorubicin (Resazurin reduction); assay type: cell-based; settings: HCT 116 pre-treated with 2 uM for 24 hrs, dox 16 hrs, normalized to TAT-alone
Procedure: Inhibitor-induced sensitivity of HCT 116 cells to a chemotherapeutic agent, namely doxorubicin (dox), was measured using the Resazurin reduction assay. This assay allows to maintain cells viability and, therefore, to monitor cell growth with time. Exponentially growing HCT 116 cells were seeded into 96-well plates at the density of 2.0×10^4 cells/mL and incubated overnight. The media was replaced with fresh media prior to inhibitor treatment. Cells were pre-treated with 2 μM of inhibitor peptide for 24 hr. Peptide was diluted in the cell culture media (DMEM−/−) from 5 mM stock. All the treated cells were compared to the control (TAT peptide alone with equivalent quantity of DMSO) which were considered as 100% viable. One set of wells also prepared with medium only for background subtracting and instrument gain adjustment. Following 24 hr peptide treatment, dilutions of dox were added to cells (0, 0.001, 0.002, 0.01, 0.02, 0.1, 0.2, 1, 2 uM) and incubated for 16 hrs. The experiments were carried out in quadruplicate and expressed as mean+−SD. A 10% resazurin solution (0.15 mg/ml stock dissolved in PBS, filter sterilized and stored protected from light at 4° C.) was then added to each well and incubated for 2 hr. The fluorescence was recorded using a multiwell plate reader (Perkin Elmer) at Ex. 560 nm and Em. 610 nm.

Set8 = biological target: T1, Set8; assay: In vitro lysine methyltransferase (KMT) activity inhibition assay (Methyltransferase-Glo); assay type: biochemical
[5] = biological target: T2, Recombinant Set8-His6x, pHIS2 …; assay: DSF thermal shift, 125 µM peptide with 20 µM Set8, SYPRO Orange; DMSO control 71.5 ± 1.1
Procedure: Thermal unfolding of target protein was monitored with inhibitor peptide using DSF. Optimal conditions were achieved using buffer containing 150 mM KH₂PO₄ (pH 7.5), 150 mM NaCl, 10 mM MgCl₂. To assess inhibitor-bound target protein (Set8), 20 μL/well (triplicate) reactions are set up into a Low 96-well Clear Multiplate PCR Plate (Bio-Rad). […] Sypro Orange™ at 5× (diluted in the above binding buffer from a stock concentration of 5000×) then added into the enzyme-peptide mixtures. The plate was covered with Microseal ‘B’ Film (Bio-Rad) and was equilibrated at 25° C. for 5 min. Experiments were conducted on a BioRad C1000 Thermal Cycler with CFX96 Real Time system. Heating was conducted using gradients from 25 to 95° C. (increasing 1° C. per minute).

[6] = biological target: T2, Recombinant Set8-His6x, pHIS2 …; assay: fluorescent polarization, fluorescein-labeled peptide with serially diluted recombinant Set8
Procedure: Recombinant Set8 protein was serially diluted in a 384-well plate, followed by the addition of fluorescein-labeled inhibitor peptide in PBS buffer. The mixtures were incubated in the dark for 30 min prior to fluorescent polarization measurements at room temperature on an EnVision Multilabel Plate Reader (PerkinElmer) with the excitation set at 480 nm and emission at 535 nm. Binding curves were generated by fitting the binding data to a hyperbolic nonlinear regression model using Prism 3.0 (GraphPad software, Inc., San Diego, Calif.), which also produced the corresponding dissociation constants (Kd).

[7] = biological target: T2, Recombinant Set8-His6x, pHIS2 …; assay: cell-based or functional assay

Row | Molecule | Tm (° C.) [5] [° C.] | further results
1 | C[C@@H](O)[C@H](N)C(=O)N[C@@H](Cc1c[nH]cn1)C(=O)N[C@@H](Cc1c[nH]cn1)C(=O)N[C@@H](Cc1c[nH]cn1)C(=O)N[C@@H](CCCCN)C(=O)N[C@@H](Cc1c[nH]cn1)C(=O)N1CCC[C@H]1C(=O)NCC(=O)NCC(=O)NCCCCCC(=O)NCC(=O)N[C@@H](CCCNC(=N)N)C(=O)N[C@@H](CCCCN)C(=O)N[C@@H](CCCCN)C(=O)N[C@@H](CCCNC(=N)N)C(=O)N[C@@H](CCCNC(=N)N)C(=O)N[C@@H](CCC(N)=O)C(=O)N[C@@H](CCCNC(=N)N)C(=O)N[C@@H](CCCNC(=N)N)C(=O)N[C@@H](CCCNC(=N)N)C(=O)N1CCC[C@H]1C(=O)N1CCC[C@H]1C(=O)N[C@@H](CCC(N)=O)C(=O)O [KBL9-TAT, THHHKHPGG{6-aminohexanoic acid}GRKKRRQRRRPPQ] (H-THHHKHPGG[Ahx]GRKKRRQRRRPPQ-OH; N-terminus and C-terminus assumed) |  | BrdU incorporation (HCT 116 cells [1]): decreased BrdU incorporation in a dose-responsive manner; IC50 (HCT 116 cells [2]; 24 hr dose response 1 nM to 20 nM, tested in HCT 116 and HEK 293 cells, read-out: IC50 for loss of cell viability): ~20 nM; loss of cell viability (HCT 116 cells [2]; HCT 116, 10 μM peptide, 24 hr, DMSO control = 100% viable): up to 80%; concentration after which H4K20 histone lysine methylation decreased [3]: at least 2 nM; increase of sensitivity to doxorubicin treatment (HCT 116 cells [4]): 360%
2 | THHHKHPGG [KBL9] |  | inhibition of Set8 methyltransferase activity (H4K20 methylation) in dose-response (Set8; 50 nM Set8, 10 μM H4K20 peptide, 10 μM SAM): complete inhibition; in vitro specificity among panel of related methyltransferases (Set8; panel of recombinant Set6, Set7, Set8 enzymes): in vitro specificity towards the inhibition of Set8 activity
3 | THHHKHPGG (also called EP 18; EP18) [KBL9] | 83.5 | 
4 | THHHKHPGG (also: fluorescein label, position not given here, also called EP18) [fluorescein-labeled KBL9] |  | Kd [6]: 33.5 nM and 33.3 nM
5 | THHHKHPGA (also called EP 22) [KBL6] | 84.8 | 
6 | THHHKHPHK (also called EP 6) [KBL2] | 85.8 | 
7 | THHHKHPGQ (also called EP 19) [KBL8] | 84.5 | 
8 | THHHKHPEQ (also called EP 7) [KBL13] | 77.6 | 
9 | SHHHKHPHG (also called EP 24) [KBL10] | 82.8 | 
10 | THHHKHPGR (also called EP 21) [KBL4] | 85 | 
11 | THHHKHPHQ (also called EP 8) [KBL15] | 75.5 | 
12 | THHH[Nle]HPGG (also called EP 43) [KBL3] | 85.6 | 
13 | SHHH[Nle]HPHG (also called EP 49) [KBL12] | 78.3 | 
14 | THHH[Nle]HPHQ (also called EP 33) [KBL1] | 86.5 | 
15 | SHHH[Nle]HPGT (also called EP 45) [KBL7] | 84.8 | 
16 | THHH[Nle]HPGA (also called EP 47) [KBL5] | 85 | 
17 | THHH[Nle]HPEQ (also called EP 32) [KBL14] | 81.5 | 
18 | THHH[Nle]HPGE (also called EP 48) [KBL11] | 78.5 | 
19 | THHHKHPGG[Ahx]GRKKRRQRRRPPQ [KBL9-TAT] |  | IC50, loss of cell viability (resazurin, 24 hr; HCT 116 and HEK 293 cells) [7]: ~20 nM

Source: US20220185844A1, “PEPTIDE-DERIVED THERAPEUTICS TARGETING SET8 FOR THE TREATMENT OF CANCER” (NUVOBIO CORPORATION, priority 2019, published 2022)
